{"source": "paper PMC10376177", "about": "“Comparison of Fungal Thermophilic and Mesophilic Catalase–Peroxidases for Their Antioxidative Properties” (Antioxidants, 2023)", "proteins": {"B1": {"name": "MagKatG1, mesophilic catalase–peroxidase from Magnaporthe oryzae (enzyme)", "chain": "MGECPLRTANVAGGGTRNRDWWPNTLKLNILRQHTEATNPYDPNFDYAEAFKSLDYEGLKKDLRALMTDSQEYWPADFGHYGGLFVRMAWHSAGTYRVMDGRGGGGQGQQRFAPLNSWPDNVSLDKARRLLWPIKQKYGNKISWADLMLLTGNVALEDMGFKTFGFAGGRPDTWEADESTYWGGETTWLGNEVRYSSGNEGHKESGVIDGSESKKGHKDIHTRDLEKPVSAAHMGLIYVNPEGPDGIPDPVAAARDIRTTFSRMAMNDEETVALIAGGHTVGKTHGAAPSDNVGPEPEAAPIENQGLGWSNKHGSGKGPDTITSGLEVIWTKEPAKFTMNYLEYLFKYEWELTKSPAGANQWVAKNAEEFIPDAFDPSKKHKPRMLTTDLSLRFDPEYEKISRRFLENPEQFKDAFARAWFKLLHRDMGPRSRWLGPEVPKETLLWEDPIPTPDHPIIDGSDVDSLKKAILATGVAPSKLIQTAWASASTFRGGDKRGGANGARIRLEPQNKWEVNNPQQLAEVLKALEGVKADFEKSGKKVSIADLIVLAGVAAVEQAAGVPVPFTPGRGDATQEQTDVESFTHLEPAADAFRNYGKGTSRVTTEQIMVDRAQQLTLTAPELTVLVGGLRVLGANYDGSSHGVWTDKPGKLTNDFFVTLLDPYTSWKSVDGEVFEGTNSKSGKKLTGTRADLVFGSHSELRALAEVYGSADGQQKFTKDFVAAWDKVMNLDRFDVRRGIYDETRLKSKL", "notes": "also called Magnaporthe oryzae katG"}}, "molecular_target": "the molecule itself", "experiment": "native gel or EMSA", "data": [{"protein": "B1", "values": [{"measurement": "stoichiometry N", "result": 2}]}]}
